From patent publication US20080300206

Tested on: recombinant wild-type human alpha-synuclein

Substance	S87 phosphorylation, immunoblot (ELADW-110)	S129 phosphorylation in vitro, normalised by activity units	S129 phosphorylation, immunoblot (11A5), kinase:AS 1:200 molar	S129 phosphorylation, immunoblot (11A5), rank of signal	phospho ser-129 level in vitro, normalised for molarity
casein kinase I (CKI)	A signal was detected only with CKI phosphorylation	CKI gave a modest signal	Prominent signals came from GRK6, CKI, CKII and PLK2	CKI>GRK6>PLK2>GRK4>GRK5>GRK2	roughly equivalent levels of phospho ser-129 between CKI, GRK6 and PLK2
casein kinase II (CKII)		CKII was not detectable	Prominent signals came from GRK6, CKI, CKII and PLK2		
